# Laboratory results from patent publication US6544753 (MERCK, dated 2003).
# T1: human GALR2 (human, UniProt O43603 1-387)
# T1 sequence: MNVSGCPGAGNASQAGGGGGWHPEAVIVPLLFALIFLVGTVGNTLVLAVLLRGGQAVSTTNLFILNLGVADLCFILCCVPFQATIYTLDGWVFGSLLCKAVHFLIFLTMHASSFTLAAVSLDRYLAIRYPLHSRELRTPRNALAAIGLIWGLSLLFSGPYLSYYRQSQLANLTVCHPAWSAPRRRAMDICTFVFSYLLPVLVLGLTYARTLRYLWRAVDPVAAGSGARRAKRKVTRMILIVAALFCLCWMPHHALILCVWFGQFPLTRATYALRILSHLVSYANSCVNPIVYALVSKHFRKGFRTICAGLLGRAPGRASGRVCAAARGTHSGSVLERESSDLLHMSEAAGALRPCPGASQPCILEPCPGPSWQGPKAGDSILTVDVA
# Biological target: T1, human GALR2
# Experiment: cell-based or functional assay
row,"aequorin bioluminescence in 293-AEQ17 cells, EC50 [nM]",Molecule
1,44,M35 (peptide)
2,8.8,M40 (peptide)
3,31,"WTLNSAGYLLGPHAIDNHRSFSDKHGLT (peptide, UniProt P10683 34-61, looked up) [rat Gal(2-29)]"
4,> 10000,"TLNSAGYLLGPHAIDNHRSFSDKHGLT (peptide, UniProt P10683 35-61, looked up) [rat Gal (3-29)]"
